In US20040071690A1:

Experiments:
NC41 Fab [1] = test: BIAcore SPR; NC41 Fab immobilised, scFv as analyte (apparent, multivalent)
NC41 Fab [2] = test: sedimentation equilibrium of the isolated complex
NC41 Fab [3] = test: gel filtration FPLC on Superose 12
NC41 Fab [4] = test: BIAcore SPR; NC41 Fab immobilised, scFv as analyte
[5] = target: NC10 scFv-0 trimer (VH-VL); test: BIAcore SPR; scFv-0 trimer immobilised (450 RU), Fab′ as analyte
NC10 scFv-10 dimer = test: BIAcore SPR; scFv-10 dimer immobilised (200 RU), Fab′ as analyte
NC10 scFv-15 monomer [6] = test: BIAcore SPR; scFv-15 monomer immobilised (~2000 RU), from the RU increase
NC10 scFv-15 monomer [7] = test: BIAcore SPR; scFv-15 monomer immobilised (2000 RU), Fab′ as analyte
NC10 scFv-5 dimer = test: BIAcore SPR; scFv-5 dimer immobilised (200 RU), Fab′ as analyte
[8] = target: Anti-idiotype 3-2G12 Fab′; test: sedimentation equilibrium of the isolated complex, fitted as a single species
[9] = target: Anti-idiotype 3-2G12 Fab′; test: sedimentation equilibrium of the isolated complex
[10] = target: Anti-idiotype 3-2G12 Fab′; test: BIAcore SPR; 3-2G12 Fab′ immobilised (1000 RU), scFv as analyte

## 11-1G10 scFv-0 trimer
NC41 Fab [1]
  koff: 8.2e-05 s⁻¹
NC41 Fab [2]
  molecular mass of complex (experimental): 262000 Da
NC41 Fab [3]
  apparent molecular mass of complex: 245 kDa

## 11-1G10 scFv-15 monomer
NC41 Fab [4]
  koff: 0.00032 s⁻¹
NC41 Fab [2]
  molecular mass of complex (experimental): 78600 Da
NC41 Fab [3]
  apparent molecular mass of complex: 79 kDa

## Anti-idiotype 3-2G12 Fab′
[5]
  Ka: 1.13e+08 M⁻¹
  koff: 0.0023 s⁻¹
  kon: 260000 M⁻¹ s⁻¹
NC10 scFv-10 dimer
  Ka: 1.3e+08 M⁻¹
  koff: 0.0029 s⁻¹
  kon: 370000 M⁻¹ s⁻¹
NC10 scFv-15 monomer [6]
  percent of immobilised protein active: < 10%
NC10 scFv-15 monomer [7]
  Ka: 2.5e+08 M⁻¹
  koff: 0.0021 s⁻¹
  kon: 500000 M⁻¹ s⁻¹
NC10 scFv-5 dimer
  Ka: 1.06e+08 M⁻¹
  koff: 0.0033 s⁻¹
  kon: 350000 M⁻¹ s⁻¹

## NC10 scFv-0 trimer (VH-VL)
[8]
  molecular mass of complex (measured, apparent average): 212000 Da

## NC10 scFv-5 dimer
[9]
  molecular mass of complex (measured): 156000 Da

## NC10 scFv-15 monomer
[10]
  Ka: 4.2e+08 M⁻¹
  koff: 0.00174 s⁻¹
  kon: 740000 M⁻¹ s⁻¹
[9]
  molecular mass of complex (measured): 77900 Da
